The supplement of paper PMC9112550, “Optimization of the antimicrobial peptide Bac7 by deep mutational scanning” (BMC Biology, 2022)

Test system: Escherichia coli TOP10
Test: shrunken log2 fold change of peptide-encoding DNA abundance (4.5 h post-induction vs induction); higher = less antimicrobial activity (less host growth inhibition)
Settings: time post-induction: 4.5 h; library: site-saturation at positions 5, 18, 19, 20
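Also: peptides expressed intracellularly from a pBAD plasmid library in pooled LB shake-flask culture, induced with 0.3% L-arabinose, DNA abundance read by NGS, three biological replicates, DESeq2 with apeglm shrinkage.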

Sequence	shrunken log2 fold change
RRIRHRPPRLPRPRPRPCDFPRP	-0.0501
RRIRHRPPRLPRPRPRPCEIPRP	-0.171
RRIRHRPPRLPRPRPRPCETPRP	-0.332
RRIRHRPPRLPRPRPRPCFQPRP	-0.558
RRIRHRPPRLPRPRPRPCLEPRP	-0.0502
RRIRHRPPRLPRPRPRPCLFPRP	-0.229
RRIRHRPPRLPRPRPRPCLNPRP	-0.263
RRIRHRPPRLPRPRPRPCLYPRP	-0.057
RRIRHRPPRLPRPRPRPCMEPRP	-0.0962
RRIRHRPPRLPRPRPRPCNSPRP	-0.0938
RRIRHRPPRLPRPRPRPCQAPRP	-0.119
RRIRHRPPRLPRPRPRPCQPPRP	-0.0284
RRIRHRPPRLPRPRPRPCRRPRP	-0.131
RRIRHRPPRLPRPRPRPCWVPRP	-0.0013
RRIRHRPPRLPRPRPRPCYNPRP	-0.427
RRIRHRPPRLPRPRPRPDCFPRP	0.3
RRIRHRPPRLPRPRPRPDCHPRP	0.0149
RRIRHRPPRLPRPRPRPDCIPRP	-0.0444
RRIRHRPPRLPRPRPRPDCKPRP	-0.148
RRIRHRPPRLPRPRPRPDDYPRP	-0.00759
RRIRHRPPRLPRPRPRPDENPRP	-0.225
RRIRHRPPRLPRPRPRPDESPRP	0.0491
RRIRHRPPRLPRPRPRPDFAPRP	-1.07
RRIRHRPPRLPRPRPRPDKAPRP	-0.468
RRIRHRPPRLPRPRPRPDKMPRP	-0.0794

Sequence	shrunken log2 fold change
RRIRHRPPRLPRPRPRPDMFPRP	-0.0749
RRIRHRPPRLPRPRPRPDNDPRP	0.00849
RRIRHRPPRLPRPRPRPDRMPRP	-0.093
RRIRHRPPRLPRPRPRPDSNPRP	-0.0814
RRIRHRPPRLPRPRPRPDTPPRP	-0.0405
RRIRHRPPRLPRPRPRPDTYPRP	-0.24
RRIRHRPPRLPRPRPRPDVQPRP	0.0591
RRIRHRPPRLPRPRPRPDYRPRP	-0.127
RRIRHRPPRLPRPRPRPECFPRP	-0.0176
RRIRHRPPRLPRPRPRPEDPPRP	0.0512
RRIRHRPPRLPRPRPRPEDYPRP	0.0112
RRIRHRPPRLPRPRPRPEFGPRP	0.308
RRIRHRPPRLPRPRPRPEGDPRP	0.383
RRIRHRPPRLPRPRPRPEGGPRP	-0.0289
RRIRHRPPRLPRPRPRPEGYPRP	-0.124
RRIRHRPPRLPRPRPRPEHRPRP	-0.137
RRIRHRPPRLPRPRPRPEHTPRP	-0.328
RRIRHRPPRLPRPRPRPEHVPRP	0.0342
RRIRHRPPRLPRPRPRPEIDPRP	0.0729
RRIRHRPPRLPRPRPRPEINPRP	-0.253
RRIRHRPPRLPRPRPRPEKEPRP	-0.00451
RRIRHRPPRLPRPRPRPEKFPRP	-0.0202
RRIRHRPPRLPRPRPRPEKTPRP	0.115
RRIRHRPPRLPRPRPRPELLPRP	0.06
RRIRHRPPRLPRPRPRPELQPRP	0.07

Sequence	shrunken log2 fold change
RRIRHRPPRLPRPRPRPELSPRP	0.252
RRIRHRPPRLPRPRPRPEMYPRP	0.000706
RRIRHRPPRLPRPRPRPEQFPRP	0.000995
RRIRHRPPRLPRPRPRPERGPRP	1.02
RRIRHRPPRLPRPRPRPESLPRP	-0.245
RRIRHRPPRLPRPRPRPESMPRP	0.0353
RRIRHRPPRLPRPRPRPETQPRP	-0.137
RRIRHRPPRLPRPRPRPEVEPRP	-0.00133
RRIRHRPPRLPRPRPRPEVTPRP	0.05
RRIRHRPPRLPRPRPRPEWRPRP	-0.0322
RRIRHRPPRLPRPRPRPEWTPRP	0.0291
RRIRHRPPRLPRPRPRPEYNPRP	-0.329
RRIRHRPPRLPRPRPRPEYPPRP	0.0664
RRIRHRPPRLPRPRPRPEYQPRP	-0.3
RRIRHRPPRLPRPRPRPFAVPRP	-1.08
RRIRHRPPRLPRPRPRPFEKPRP	-0.0199
RRIRHRPPRLPRPRPRPFFHPRP	-0.454
RRIRHRPPRLPRPRPRPFFKPRP	-0.149
RRIRHRPPRLPRPRPRPFFMPRP	-0.564
RRIRHRPPRLPRPRPRPFFQPRP	-0.202
RRIRHRPPRLPRPRPRPFHHPRP	0.0477
RRIRHRPPRLPRPRPRPFHQPRP	-0.01
RRIRHRPPRLPRPRPRPFKEPRP	-0.289
RRIRHRPPRLPRPRPRPFKNPRP	-0.0803
RRIRHRPPRLPRPRPRPFKWPRP	-0.0376

Sequence	shrunken log2 fold change
RRIRHRPPRLPRPRPRPFLSPRP	-0.187
RRIRHRPPRLPRPRPRPFPHPRP	0.188
RRIRHRPPRLPRPRPRPFQLPRP	-0.0386
RRIRHRPPRLPRPRPRPFQPPRP	-0.135
RRIRHRPPRLPRPRPRPFRIPRP	-0.127
RRIRHRPPRLPRPRPRPFSMPRP	-0.0138
RRIRHRPPRLPRPRPRPFSWPRP	-0.0533
RRIRHRPPRLPRPRPRPFTQPRP	-0.0771
RRIRHRPPRLPRPRPRPFVAPRP	1.81
RRIRHRPPRLPRPRPRPFVHPRP	-0.836
RRIRHRPPRLPRPRPRPFYFPRP	-0.355
RRIRHRPPRLPRPRPRPFYMPRP	-0.292
RRIRHRPPRLPRPRPRPGAWPRP	0.265
RRIRHRPPRLPRPRPRPGCLPRP	-0.278
RRIRHRPPRLPRPRPRPGDDPRP	-0.044
RRIRHRPPRLPRPRPRPGEYPRP	-0.219
RRIRHRPPRLPRPRPRPGFKPRP	-0.206
RRIRHRPPRLPRPRPRPGGTPRP	0.0131
RRIRHRPPRLPRPRPRPGIKPRP	0.0126
RRIRHRPPRLPRPRPRPGKTPRP	-0.031
RRIRHRPPRLPRPRPRPGLIPRP	-0.234
RRIRHRPPRLPRPRPRPGLMPRP	-0.162
RRIRHRPPRLPRPRPRPGNPPRP	0.0424
RRIRHRPPRLPRPRPRPGNWPRP	-0.0354
RRIRHRPPRLPRPRPRPGPDPRP	-0.227

Sequence	shrunken log2 fold change
RRIRHRPPRLPRPRPRPGRHPRP	-0.0683
RRIRHRPPRLPRPRPRPGRIPRP	0.136
RRIRHRPPRLPRPRPRPGSDPRP	-0.014
RRIRHRPPRLPRPRPRPGTSPRP	-0.0565
RRIRHRPPRLPRPRPRPGVTPRP	0.00739
RRIRHRPPRLPRPRPRPGWTPRP	-0.00563
RRIRHRPPRLPRPRPRPGYMPRP	-0.49
RRIRHRPPRLPRPRPRPGYNPRP	-0.418
RRIRHRPPRLPRPRPRPHAAPRP	0.292
RRIRHRPPRLPRPRPRPHAFPRP	-0.0301
RRIRHRPPRLPRPRPRPHAHPRP	-0.072
RRIRHRPPRLPRPRPRPHANPRP	-0.124
RRIRHRPPRLPRPRPRPHASPRP	0.00288
RRIRHRPPRLPRPRPRPHCDPRP	-0.0744
RRIRHRPPRLPRPRPRPHCGPRP	-0.0402
RRIRHRPPRLPRPRPRPHCHPRP	-0.551
RRIRHRPPRLPRPRPRPHDQPRP	-0.104
RRIRHRPPRLPRPRPRPHFLPRP	-0.0519
RRIRHRPPRLPRPRPRPHFVPRP	-0.136
RRIRHRPPRLPRPRPRPHGCPRP	-0.0438
RRIRHRPPRLPRPRPRPHGNPRP	-1.11
RRIRHRPPRLPRPRPRPHGRPRP	-0.219
RRIRHRPPRLPRPRPRPHIQPRP	-0.701
RRIRHRPPRLPRPRPRPHKLPRP	-0.279
RRIRHRPPRLPRPRPRPHKSPRP	-0.337

Sequence	shrunken log2 fold change
RRIRHRPPRLPRPRPRPHMCPRP	-0.0681
RRIRHRPPRLPRPRPRPHQDPRP	-0.249
RRIRHRPPRLPRPRPRPHQPPRP	-0.0185
RRIRHRPPRLPRPRPRPHREPRP	0.00911
RRIRHRPPRLPRPRPRPHRGPRP	-0.0108
RRIRHRPPRLPRPRPRPHSSPRP	-0.0394
RRIRHRPPRLPRPRPRPHTEPRP	-0.406
RRIRHRPPRLPRPRPRPHTVPRP	-0.606
RRIRHRPPRLPRPRPRPHTWPRP	-0.301
RRIRHRPPRLPRPRPRPHVKPRP	-0.00471
RRIRHRPPRLPRPRPRPHVVPRP	-0.0954
RRIRHRPPRLPRPRPRPIATPRP	-0.0153
RRIRHRPPRLPRPRPRPIAYPRP	-0.149
RRIRHRPPRLPRPRPRPICIPRP	-0.577
RRIRHRPPRLPRPRPRPICTPRP	-0.485
RRIRHRPPRLPRPRPRPICVPRP	0.0683
RRIRHRPPRLPRPRPRPIDPPRP	0.0865
RRIRHRPPRLPRPRPRPIEWPRP	-0.02
RRIRHRPPRLPRPRPRPIEYPRP	-0.129
RRIRHRPPRLPRPRPRPIFDPRP	-0.0378
RRIRHRPPRLPRPRPRPIFNPRP	-0.447
RRIRHRPPRLPRPRPRPIGEPRP	-0.00286
RRIRHRPPRLPRPRPRPIHHPRP	-0.216
RRIRHRPPRLPRPRPRPIKQPRP	-0.0565
RRIRHRPPRLPRPRPRPILRPRP	-0.178
